In US20180326022:

Tests used:
[1] = molecular target: detyrosinated microtubules (rat cardiomyocytes)
[2] = molecular target: detyrosinated microtubules (human cardiomyocytes)

B1: human tubulin tyrosine ligase (TTL) (protein)
chain: MYTFVVRDENSSVYAEVSRLLLATGHWKRLRRDNPRFNLMLGERNRLPFGRLGHEPGLVQLVNYYRGADKLCRKASLVKLIKTSPELAESCTWFPESYVIYPTNLKTPVAPAQNGIQPPISNSRTDEREFFLASYNRKKEDGEGNVWIAKSSAGAKGEGILISSEASELLDFIDNQGQVHVIQKYLEHPLLLEPGHRKFDIRSWVLVDHQYNIYLYREGVLRTASEPYHVDNFQDKTCHLTNHCIQKEYSKNYGKYEEGNEMFFKEFNQYLTSALNITLESSILLQIKHIIRNCLLSVEPAISTKHLPYQSFQLFGFDFMVDEELKVWLIEVNGAPACAQKLYAELCQGIVDIAISSVFPPPDVEQPQTQPAAFIKL
[1]
  amount of polymerized, detyrosinated MTs (immunofluorescence and immunoblot) after AdV-TTL: 3-4 fold reduction in the amount of polymerized, detyrosinated MTs
  detyr Tubulin, western blotting relative to null, TTL (0.01) (relative to null): 0.74
  detyr Tubulin, western blotting relative to null, TTL (0.1) (relative to null): 0.28
  tyr Tubulin, western blotting relative to null, TTL (0.01) (relative to null): 2.63
  tyr Tubulin, western blotting relative to null, TTL (0.1) (relative to null): 3.32
[2]
  density of dTyr-MTs and dTyr-MT/total MT ratio (immunofluorescence) after AdV-TTL for 48 hrs: decreased the density of dTyr-MTs and the proportion of total MTs that were detyrosinated
